# According to article PMC6424575:
# Molecular target: stand-alone thioesterase (TE) domain of the 6-deoxyerythronolide B synthase (DEBS)
# Test: SEC
substance,measurement,value
stand-alone thioesterase (TE) domain of the 6-deoxyerythronolide B synthase (DEBS) (domain or fragment),stoichiometry N,2
